We go through one molecule from patent US20080182978A1, “ANTI-NGF ANTIBODIES AND METHODS USING SAME” (RINAT NEUROSCIENCE CORP, priority 2002, published 2008).

In experiment [1] the target is T1, human NGF (Homo sapiens, UniProt P01138). In words: BIAcore screening assay of Fab library clones (koff). It counts as binding. The note with it: Table 8: CDR L3 H3 combination mutations, H19-L129 template (H1H2L1L2 matured). An outline of the steps:
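Fab library clones expressed in E. coli (1 mM IPTG, 5 h, 30° C), lysed by freeze-thaw in HBS-EP; lysates injected at 50 μl/min for 2 min over CM5-immobilised human NGF (500-600 RU). Single-exponential koff fitted from 10-15 min dissociation; Fab presence checked via anti-penta-His channel.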

Experiment [2] has as its target T1, human NGF. In words: Mouse E13.5 trigeminal neuron survival assay, human NGF. It counts as cell-based. The note with it: 0.4 ng/ml human NGF (saturating); 0.00128-20 nM. Here is the method:
The ability of Fab E3 or full antibody E3 to block NGF activity was evaluated by measurement of the capacity of the antibody to inhibit NGF-dependent survival of mouse E13.5 trigeminal neurons in vitro. The trigeminal ganglion is comprised of cutaneous sensory neurons that innervate the facial region. The survival of mouse E13.5 trigeminal neurons is a sensitive assay to evaluate the NGF-blocking activity of anti-NGF antagonist antibodies because NGF is required to support survival of these neurons. For example, at saturating concentrations of NGF, the survival is close to 100% by 48 hours in culture. By contrast, less than 5% of the neurons survive by 48 hours in absence of NGF.
The survival assay was conducted as follows: time-mated pregnant Swiss Webster female mice were euthanized by CO2 inhalation. The uterine horns were removed and the embryos at embryonic stage E13.5 were extracted and decapitated. The trigeminal ganglia were dissected using electrolytically sharpened tungsten needles. The ganglia were then trypsinized, mechanically dissociated and plated at a density of 200-300 cells per well in defined, serum-free medium in 96-well plates coated with poly-L-ornithine and laminin.
After 48 hours in culture, the cells were subjected to an automated immunocytochemistry protocol performed on a Biomek FX liquid handling workstation (Beckman Coulter) as follows: fixation using 4% formaldehyde, 5% sucrose, and PBS; permeabilization using 0.3% Triton X-100 in PBS); blocking of unspecific binding sites using 5% normal goat serum, 0.11% BSA in PBS; and sequential incubation with a primary and secondary antibodies to detect neurons. The primary antibody was rabbit polyclonal antibody against the protein gene product […] (PGP9.5, Chemicon), an established neuronal phenotypic marker. The secondary antibody was Alexa Fluor 488 goat anti-rabbit (Molecular Probes), together with the nuclear dye Hoechst 33342 (Molecular Probes) to label the nuclei of all the cells present in the culture. […]

T1 sequence (P01138 122-241): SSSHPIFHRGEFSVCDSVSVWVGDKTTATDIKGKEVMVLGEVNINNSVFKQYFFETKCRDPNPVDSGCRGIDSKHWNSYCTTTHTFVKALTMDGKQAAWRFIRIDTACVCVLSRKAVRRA

B1: E3: humanized, affinity matured anti-NGF antagonist antibody; variable regions SEQ ID NO:1 and 2; human IgG2a (A330P331 to S330S331), kappa (antibody, V domains shown)
VH: QVQLQESGPGLVKPSETLSLTCTVSGFSLIGYDLNWIRQPPGKGLEWIGIIWGDGTTDYNSAVKSRVTISKDTSKNQFSLKLSSVTAADTAVYYCARGGYWYATSYYFDYWGQGTLVTVS
VL: DIQMTQSPSSLSASVGDRVTITCRASQSISNNLNWYQQKPGKAPKLLIYYTSRFHSGVPSRFSGSGSGTDFTFTISSLQPEDIATYYCQQEHTLPYTFGQGTKLEIKRT
modifications: human IgG2a constant (A330S/P331S) and kappa constant missing
Consider B1, for which, in the experiment with human NGF [1], the koff was 1.2e-05 s⁻¹. Moreover, the “inhibition of NGF-dependent survival compared with antibody 911 and trkA immunoadhesin” value in the experiment with human NGF [2] is “blocked NGF significantly better than either mouse monoclonal anti-NGF antibody 911 or the trkA immunoadhesin”.

One may read the koff as the rate constant with which the complex falls apart.
